test: soluble on expression in E. coli; label from the status in PepcDB or PDB records

Row | Sequence | soluble on expression in E. coli
1 | MEQLNICIDIDGTITDAYYWIDLCNSYFKTSITEKDATQYYIHKILNVPLEEYNEFYEKYKYKLHSEQKLRKDVKSVITKLSQNNNIFFVTARERDLTILTYSYLRKKEIPYDSLFILGTHHKVPTARQLNCDLFIEDNYDNALELSKAGFKVLLIDTYYNRKPLNQNIIRFYNWDEVYGIVDRLFEKSEAI | not soluble
2 | MEQLNKMAPKDVRALIREGKINGPTAGMSGGYAQANLVVLKKDLAFDFLLFCQRNQKPCPVLDVTEAGSPVPSLLRRMLISRTDFPKYRIYRHGILTEEVSDITPYWEDDFVGFLIGCSFSFEQALINNGIAVRHIDEGTNVSMYKTNIDCFPVGAFHGQMVVSMRPVPERLAVRAAQVTSRFPAVHGGPIHIGNPGAIGIRDLGKPDFGDAVSIRDGEVPVFWACGVTPQAVAMNVKPEMVITHAPGHMLITDIRDESLAVLLEHHHHHH | soluble
3 | MERAPLLELKGIRKRFGELEVLRGVDLALYPGEILALLGPSGCGKTTLLRVVAGLEVPDAGRVFLEGRDITALPPEKRGIGFVFQDYALFPHLTALGNVAFGLKGKDRLARARKALERVGMTLFQDRRPGELSGGQQQRVALARALAPGPKLVLLDEPFSSLDAGLRAATREEVRKVLKETGTAALLVTHDQEEALSFADRLGVMRGGEILQVGTPEEVYLRPKTPFVAQFLGRTNLLPGEGRGRYAETCLGRVPLAEAREGPLLLSLRPEALRLTPPGQGPQGEVVAREFKGHDLTYRVRLHGVQPEREVLVQEGPTCPFKVGDRVGLEVVGEGVALEGTPPAPVRQEA | soluble
4 | MERIAFVYMGGDEFKWLFFEVYDRVRRFMKDVNLGIIPIYAGKIKLPPGMLVRVNAGNGYIKMYPFEAVVEALYGKLVEMRDDVKDDTLTKIFGITTFPIGSRKQYFDIYKKYLGIQVSIGNYNVLALSIKPFYTENRELFVERVFKGVLHEIGHLYGLSHCKNDCVMNPPNDLKDWDRRAPSYCNSCLRELKRKVKPMPLLLHRAYECFHC | not soluble
5 | MERKHHFVLVHNAYHGAWIWYKLKPLLESAGHRVTAVELAASGIDPRPIQAVETVDEYSKPLIETLKSLPENEEVILVGFSFGGINIALAADIFPAKIKVLVFLNAFLPDTTHVPSHVLDKYMEMPGGLGDCEFSSHETRNGTMSLLKMGPKFMKARLYQNCPIEDYELAKMLHRQGSFFTEDLSKKEKFSEEGYGSVQRVYVMSSEDKAIPCDFIRWMIDNFNVSKVYEIDGGDHMVMLSKPQKLFDSLSAIATDYM | soluble
6 | MERPLARNEVTRLGPDSKFHHAGLRRGLSPATLRKLDAISRLRVFPRDAVVVPQGGALEYVGNVVRGVLRMERLLSDGRSQIVGLLVPTDMFGRVFSERSDYSVEAATEVTLCCFERHAFEALVRTCPDLEHAVLLAVLDELDAAREWITLRAGPTVAARLATYLLMLCRRWPHQTSELTQDAKRIVVNVPIARNDLAHYLGTTVESISRAVQAFSRDGIISILTPLRFEILDLPALIALSDNEEFDAHALLEGLREEQRVSP | not soluble
7 | MERPQLDSMSQDLSEALKEATKEVHIRAENSEFMRNFQKGQVSREGFKLVTASLYHIYTALEEEIERNKQNPVYAPLYFPEELHRRAALEQDLAFWYGPHWQEAIPYTPATQHYVKRLHEVGGTHPELLVAHAYTRYLGDLSGGQVLKKIAQKALALPSSGEGLASFTFPSIDNPTKFKQLYRARMNTLELTPEVKHRVTEEAKTAFLLNIELFEELQALLTEEHKDQSPSQTEFLRQRPASLVQDTTSAETPRGKSQISTSSSQTP | soluble
8 | MERVYRTDLKLLRYFLAVAEELHFGRAAARLNMSQPPLSIHIKELENQLGTQLFIRHSRSVVLTHAGKILMEESRRLLVNANNVLARIEQIGRGEAGRIELGVVGTAMWGRMRPVMRRFLRENPNVDVLFREKMPAMQMALLERRELDAGIWRMATEPPTGFTSLRLHESAFLVAMPEEHHLSSFSTVPLEALRDEYFVTMPPVYTDWDFLQRVCQQVGFSPVVIREVNEPQTVLAMVSMGIGITLIADSYAQMNWPGVIFRPLKQRIPADLYIVYETQQVTPAMVKLLAALTQ | soluble
9 | MESDTSRTPYNSIYATLKNKKTDGEVVCCVHGRRCSYGKGNQDGKRDDNQYVNLPFLKNQDQIASKLTGKLNKLKIAEEKENKIVPREKPEMMSLNTLVEIARAGEQPRKGRGDKEKRTKKAPVLVDDSQLYVMIGPPSEHPGEPPASEPTETYKTNTIDESTFKGSEALSAYIGVVTLANAENHLTRRGEFALYHLFNPNGRLDTITDKLPLMIVYRTTTKKNRHYSIRTTCDQQFFVDCGYPNVRKHYSLSHLVMFYKTSATCEINPDDTSADSFSWWLE | not soluble
10 | MESLLTLPLAGEARVRILQITDTHLFAEKHETLLGVNTWESYQAVLEAIRAQQYEYDLIVATGDLAQDQSAAAYQHFAEGIASFRAPCVWLPGNHDFQPAMYSALQEAGISPAKRVLIGEQWQILLLDSQVFGVPHGELSEFQLEWLERKLADAPERQTLLLLHHHPLPAGCSWLDQHSLRNAGELDSVLANFPRVKYLLCGHIHQELDLDWNGRRLLASPSTCVQFKPHCANFTLDTIAPGWRTLELRANGVLETEVHRLQDTRFRPDTASEGY | not soluble
11 | MESNNNEKKKVARQSSSFRLRSPSLNALRLQRIFDLFDKNGDGFITVEELSQALTRLGLNADLSDLKSTVESYIQPGNTGLNFDDFSSLHKTLDDSFFGGACGGGENEDDPSSAAENESDLAEAFKVFDENGDGFISARELQTVLKKLGLPEGGEMERVEKMIVSVDRNQDGRVDFFEFKNMMRTVVIPSS | soluble
12 | MESNTWNTIHDNKKENAALNDVQVEVNYAIKLDDQWTVRPGMLTHFSSNGTRYGPYVKLSWDATKDLNFGIRYRYDWKAYRQQDLSGDMSRDNVHRWDGYVTYHINSDFTFAWQTTLYSKQNDYRYANHKKWATENAFVLQYHMTPDITPYIEYDYLDRQGVYNGRDNLSENSYRIGVSFKL | not soluble
13 | MESTVTTQEEKLAYQQSVEMASNYANQFDADMKANLAIARTISTTMESYETADRDEALLILENLLRDNPHLLGTYVAFEPDAFDGKDAEYTNSPAHDGTGRFVPYWNKMNGTASVAPLLHYDSSDYYQLPKATEKDVLTEPYFYEGVFMVSYVSPIMKEGEFAGIGGVDVSLEYVDEVVSKVRTFDTGYAFMVSNSGVILSHPTHKDWIGKKDLYDFGGEELEKASRDIKNGIGGHLETADPTTGKTVILFYEPVETGDFAFVLVVPKEEMLAGVADLRERLLEHHHHHH | soluble
14 | MESVPSPRRVVLTPGARRALDAAGRLFYERGIHAVGVDLIAAEAGVTKKTLYDRFGSKEQIVVEYLADRDERWRAFLAGHLDTAGDSPGRRLTAIFDASREWTAENSAKGCSMVNAHAEISDPAHPAYAVIVGQKRWMLDLFTGVCRDASVRDPETLARTVMLLHEGALVSHGLQVFPEAVRLASDQASALLAAAAGPAR | not soluble
15 | METAPKPVGPYSQAVESGCFMFVSGQIPINPETGALEEGGFKESAKRALDNLKAIVEGAGYSMDDIVKVTVYITDISRFSEFNEVYREYFNRPYPARAVVGVAALPLGAPLEVEAVLYTCRRK | soluble
16 | METESWKLLESSIIYYEGNPIGTVAAQDPELAALNYDQCFLRDFVPSAFVFLMDGQTDIVRNFLIETLTLQSHEKEMDCFQPGAGLMPASFKVESDGSKEYLVADFGEKAIARVPPVDSCMWWILLLRAYEKATGDLTLAREPKFQAGIKLILDLCLAHRFSMYPTMLVPDGAFMIDRRMGVYEHPLEIQVLFYAALRAARELLLPDGDGEQYLNKVHGRLGALQYHIRNYYWVDLKRLREIYRYKGNEFGKEIANKFNIFSQSIPDWVIEWLPEKGGYLAGNLGPGRMDFRFFALGNLMAILAGLASEEESQRIMNLFAHRWEDLIGYMPVKICYPALQGLEWQIVTGCDPKNIPWSYHNGGNWPVLLWLFTAAALKTGKVELAHEAIAIAEGRLSNDKFPEYYDGNNGRLIGKEARIYQTWSIAGLLVAKQFLANPDHVEFISFPDTFIGPGCSLLEHHHHHH | soluble

Reference: the DeepSol protein solubility set
